The values below come from paper PMC3059534.

For data set [1], the target named is Exo1 D173A;Mre11-Rad50-Xrs2 (MRX) (Saccharomyces cerevisiae (budding …, UniProt P39875;P32829;P12753;P33301 1-702;1-692;1-1312;1-854, D173A|)). Description: pull-down.
Data set [2] concerns the target Mre11-Rad50-Xrs2 (MRX);Sae2 (Saccharomyces cerevisiae (budding …, UniProt P32829;P12753;P33301;P46946 1-692;1-1312;1-854;1-345, |)). Description: EMSA. (Mobility shift assays separate free from complexed probe on a gel.)
Another data set concerns the target M(H125N)RX (Saccharomyces cerevisiae (budding yeast), UniProt P32829;P12753;P33301 1-692;1-1312;1-854, H125N;Mre11). As to the kind of experiment: EMSA.
Data set [3] addresses T1, Sae2 (Saccharomyces cerevisiae (budding yeast), UniProt P46946 1-345).
T1 sequence: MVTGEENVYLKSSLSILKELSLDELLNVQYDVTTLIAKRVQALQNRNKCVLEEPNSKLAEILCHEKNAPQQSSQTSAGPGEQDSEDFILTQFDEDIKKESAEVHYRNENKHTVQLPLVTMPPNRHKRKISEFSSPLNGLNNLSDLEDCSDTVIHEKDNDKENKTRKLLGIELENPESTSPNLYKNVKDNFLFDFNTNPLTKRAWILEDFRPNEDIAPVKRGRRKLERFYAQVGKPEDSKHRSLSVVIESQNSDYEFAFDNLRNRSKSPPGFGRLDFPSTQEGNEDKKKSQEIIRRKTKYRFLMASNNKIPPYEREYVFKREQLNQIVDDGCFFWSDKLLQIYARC
As to the kind of experiment: EMSA.

A further data set addresses T2, Exo1 D173A (Saccharomyces cerevisiae (budding yeast), UniProt P39875 1-702, D173A).
T2 sequence: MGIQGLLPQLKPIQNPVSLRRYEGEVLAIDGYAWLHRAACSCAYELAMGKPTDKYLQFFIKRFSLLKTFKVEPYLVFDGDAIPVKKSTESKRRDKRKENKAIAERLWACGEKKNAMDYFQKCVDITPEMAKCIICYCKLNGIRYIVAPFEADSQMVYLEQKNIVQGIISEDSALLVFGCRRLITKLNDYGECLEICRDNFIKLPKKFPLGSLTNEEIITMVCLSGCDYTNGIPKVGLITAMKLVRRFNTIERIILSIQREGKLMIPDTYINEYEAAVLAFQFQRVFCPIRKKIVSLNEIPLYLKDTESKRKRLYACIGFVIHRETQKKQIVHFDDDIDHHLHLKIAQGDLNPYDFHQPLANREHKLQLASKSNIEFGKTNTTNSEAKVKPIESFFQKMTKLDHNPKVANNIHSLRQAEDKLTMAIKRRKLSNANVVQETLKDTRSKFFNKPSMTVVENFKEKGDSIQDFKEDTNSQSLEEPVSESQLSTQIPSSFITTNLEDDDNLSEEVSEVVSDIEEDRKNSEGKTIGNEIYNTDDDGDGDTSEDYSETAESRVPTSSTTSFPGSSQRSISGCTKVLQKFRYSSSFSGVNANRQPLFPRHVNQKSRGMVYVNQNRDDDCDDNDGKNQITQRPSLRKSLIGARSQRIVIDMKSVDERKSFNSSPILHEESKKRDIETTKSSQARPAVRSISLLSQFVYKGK
Description: EMSA.

Data set [4] addresses T3, Exo1 (form in crosslinking assay not stated) (Saccharomyces cerevisiae (budding yeast), UniProt P39875 1-702).
T3 sequence: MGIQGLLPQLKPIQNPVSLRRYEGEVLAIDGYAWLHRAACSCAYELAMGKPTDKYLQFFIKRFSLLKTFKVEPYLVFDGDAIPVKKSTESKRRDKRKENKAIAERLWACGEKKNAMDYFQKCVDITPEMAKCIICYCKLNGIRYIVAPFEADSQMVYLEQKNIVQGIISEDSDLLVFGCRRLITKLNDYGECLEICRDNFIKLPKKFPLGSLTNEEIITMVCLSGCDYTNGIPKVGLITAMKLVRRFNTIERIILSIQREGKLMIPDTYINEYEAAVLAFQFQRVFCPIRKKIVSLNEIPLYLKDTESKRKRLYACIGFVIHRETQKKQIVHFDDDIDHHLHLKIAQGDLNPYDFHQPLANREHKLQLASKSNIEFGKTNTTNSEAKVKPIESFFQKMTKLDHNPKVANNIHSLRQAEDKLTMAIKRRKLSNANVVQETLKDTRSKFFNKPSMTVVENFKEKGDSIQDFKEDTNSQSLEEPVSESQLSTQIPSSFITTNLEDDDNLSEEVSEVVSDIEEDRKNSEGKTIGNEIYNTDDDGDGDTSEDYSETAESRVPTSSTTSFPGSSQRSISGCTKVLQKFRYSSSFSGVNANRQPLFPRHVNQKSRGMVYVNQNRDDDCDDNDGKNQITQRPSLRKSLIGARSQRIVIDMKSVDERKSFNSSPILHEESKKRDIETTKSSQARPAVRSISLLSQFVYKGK
Description: UV photo-crosslinking.

For data set [5], the target named is Exo1 (form in crosslinking assay not stated);Mre11-Rad50-Xrs2 (MRX);Sae2 (Saccharomyces cerevisiae (budding …, UniProt P39875;P32829;P12753;P33301;P46946 1-702;1-692;1-1312;1-854;1-345, ||)). As to the kind of experiment: UV photo-crosslinking.
In data set [6] the target is T1, Sae2. Description: UV photo-crosslinking.

M(H125N)RX, sequence (P32829 whole entry H125N, chain 1 of 3): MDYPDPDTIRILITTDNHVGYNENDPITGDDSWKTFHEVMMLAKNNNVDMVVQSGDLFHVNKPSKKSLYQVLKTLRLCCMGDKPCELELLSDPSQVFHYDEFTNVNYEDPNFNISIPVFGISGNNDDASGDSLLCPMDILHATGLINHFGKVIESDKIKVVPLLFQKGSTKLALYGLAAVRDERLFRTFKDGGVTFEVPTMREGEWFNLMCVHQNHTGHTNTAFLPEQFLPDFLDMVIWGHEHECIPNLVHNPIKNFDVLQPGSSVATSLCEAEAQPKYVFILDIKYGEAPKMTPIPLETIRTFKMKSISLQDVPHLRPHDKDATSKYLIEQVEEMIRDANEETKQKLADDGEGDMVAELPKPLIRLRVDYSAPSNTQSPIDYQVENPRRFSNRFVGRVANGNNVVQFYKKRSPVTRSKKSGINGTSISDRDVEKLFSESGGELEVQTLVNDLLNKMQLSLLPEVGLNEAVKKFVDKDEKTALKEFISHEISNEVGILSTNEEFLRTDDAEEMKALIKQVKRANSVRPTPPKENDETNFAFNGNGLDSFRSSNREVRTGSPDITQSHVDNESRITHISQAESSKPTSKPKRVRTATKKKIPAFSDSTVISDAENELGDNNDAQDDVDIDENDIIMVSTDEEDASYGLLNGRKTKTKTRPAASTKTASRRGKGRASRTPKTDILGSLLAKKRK
M(H125N)RX, sequence (P12753 whole entry, stated change not applied, chain 2 of 3): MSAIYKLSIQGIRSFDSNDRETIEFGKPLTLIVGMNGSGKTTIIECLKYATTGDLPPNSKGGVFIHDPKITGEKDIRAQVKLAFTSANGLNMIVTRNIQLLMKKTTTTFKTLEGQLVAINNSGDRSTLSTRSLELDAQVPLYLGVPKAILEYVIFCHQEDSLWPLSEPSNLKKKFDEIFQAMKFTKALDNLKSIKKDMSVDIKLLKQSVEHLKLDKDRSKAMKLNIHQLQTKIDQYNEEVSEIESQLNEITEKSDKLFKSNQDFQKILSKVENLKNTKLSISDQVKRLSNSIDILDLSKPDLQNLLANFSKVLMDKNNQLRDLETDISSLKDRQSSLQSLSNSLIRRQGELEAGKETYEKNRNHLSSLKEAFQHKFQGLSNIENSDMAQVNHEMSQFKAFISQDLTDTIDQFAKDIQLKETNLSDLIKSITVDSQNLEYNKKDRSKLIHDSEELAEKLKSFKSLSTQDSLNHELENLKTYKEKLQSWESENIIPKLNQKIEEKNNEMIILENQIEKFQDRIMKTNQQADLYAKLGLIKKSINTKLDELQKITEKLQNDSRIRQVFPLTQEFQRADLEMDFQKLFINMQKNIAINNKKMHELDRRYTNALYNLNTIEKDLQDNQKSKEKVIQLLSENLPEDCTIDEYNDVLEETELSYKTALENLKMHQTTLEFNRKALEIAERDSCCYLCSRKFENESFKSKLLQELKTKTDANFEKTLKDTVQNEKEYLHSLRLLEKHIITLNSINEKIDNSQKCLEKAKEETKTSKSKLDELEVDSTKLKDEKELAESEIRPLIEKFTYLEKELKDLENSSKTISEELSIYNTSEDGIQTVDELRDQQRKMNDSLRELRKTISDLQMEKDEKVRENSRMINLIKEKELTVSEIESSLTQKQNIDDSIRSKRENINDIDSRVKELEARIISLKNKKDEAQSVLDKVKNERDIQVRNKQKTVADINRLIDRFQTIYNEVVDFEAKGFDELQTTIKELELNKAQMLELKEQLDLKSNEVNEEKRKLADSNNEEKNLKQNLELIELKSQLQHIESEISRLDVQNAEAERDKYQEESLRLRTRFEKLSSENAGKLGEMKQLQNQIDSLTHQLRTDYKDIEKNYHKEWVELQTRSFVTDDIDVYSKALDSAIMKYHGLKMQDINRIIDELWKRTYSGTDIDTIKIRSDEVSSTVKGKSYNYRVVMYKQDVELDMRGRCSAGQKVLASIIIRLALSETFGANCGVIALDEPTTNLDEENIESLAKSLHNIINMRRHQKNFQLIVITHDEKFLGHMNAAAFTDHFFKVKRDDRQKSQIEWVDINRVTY
M(H125N)RX, sequence (P33301 whole entry, stated change not applied, chain 3 of 3): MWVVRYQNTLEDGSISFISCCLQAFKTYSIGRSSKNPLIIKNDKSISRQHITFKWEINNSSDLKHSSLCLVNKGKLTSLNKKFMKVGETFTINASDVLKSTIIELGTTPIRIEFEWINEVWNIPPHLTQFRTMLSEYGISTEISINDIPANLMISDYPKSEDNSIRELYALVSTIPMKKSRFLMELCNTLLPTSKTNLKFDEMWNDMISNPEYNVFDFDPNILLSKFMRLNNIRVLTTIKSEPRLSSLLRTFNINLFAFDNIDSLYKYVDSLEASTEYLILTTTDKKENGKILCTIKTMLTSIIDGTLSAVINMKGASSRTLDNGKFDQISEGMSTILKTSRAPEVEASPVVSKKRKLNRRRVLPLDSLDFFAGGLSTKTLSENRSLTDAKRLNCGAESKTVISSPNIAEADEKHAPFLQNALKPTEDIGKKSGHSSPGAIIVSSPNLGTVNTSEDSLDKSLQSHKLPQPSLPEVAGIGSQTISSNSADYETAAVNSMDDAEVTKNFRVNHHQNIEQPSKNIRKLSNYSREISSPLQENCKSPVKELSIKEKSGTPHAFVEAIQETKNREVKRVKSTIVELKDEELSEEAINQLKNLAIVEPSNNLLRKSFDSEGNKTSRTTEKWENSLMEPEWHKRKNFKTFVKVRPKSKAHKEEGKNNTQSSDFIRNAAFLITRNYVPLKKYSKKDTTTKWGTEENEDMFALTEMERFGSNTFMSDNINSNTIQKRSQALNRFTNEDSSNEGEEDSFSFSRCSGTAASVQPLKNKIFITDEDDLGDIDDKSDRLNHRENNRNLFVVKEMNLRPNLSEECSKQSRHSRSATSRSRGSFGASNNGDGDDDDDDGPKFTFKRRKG
Exo1 (form in crosslinking assay not stated);Mre11-Rad50-Xrs2 (MRX);Sae2 (Saccharomyces cerevisiae, sequence (P32829 whole entry, chain 2 of 3): as the sequence (P32829 whole entry H125N, chain 1 of 3) above, with N125H counted along it
Exo1 (form in crosslinking assay not stated);Mre11-Rad50-Xrs2 (MRX);Sae2 (Saccharomyces cerevisiae, sequence (P12753 whole entry, chain 3 of 3): as the sequence (P12753 whole entry, stated change not applied, chain 2 of 3) above
Exo1 (form in crosslinking assay not stated);Mre11-Rad50-Xrs2 (MRX);Sae2 (Saccharomyces cerevisiae, sequence (P33301 whole entry, chain 4 of 3): as the sequence (P33301 whole entry, stated change not applied, chain 3 of 3) above
Mre11-Rad50-Xrs2 (MRX);Sae2 (Saccharomyces cerevisiae, sequence (P32829 whole entry, chain 1 of 3): as the sequence (P32829 whole entry H125N, chain 1 of 3) above, with N125H counted along it
Mre11-Rad50-Xrs2 (MRX);Sae2 (Saccharomyces cerevisiae, sequence (P12753 whole entry, chain 2 of 3): as the sequence (P12753 whole entry, stated change not applied, chain 2 of 3) above
Mre11-Rad50-Xrs2 (MRX);Sae2 (Saccharomyces cerevisiae, sequence (P33301 whole entry, chain 3 of 3): as the sequence (P33301 whole entry, stated change not applied, chain 3 of 3) above
Exo1 D173A;Mre11-Rad50-Xrs2 (MRX) (Saccharomyces cerevisiae, sequence (P32829 whole entry, chain 2 of 3): as the sequence (P32829 whole entry H125N, chain 1 of 3) above, with N125H counted along it
Exo1 D173A;Mre11-Rad50-Xrs2 (MRX) (Saccharomyces cerevisiae, sequence (P12753 whole entry, chain 3 of 3): as the sequence (P12753 whole entry, stated change not applied, chain 2 of 3) above
Exo1 D173A;Mre11-Rad50-Xrs2 (MRX) (Saccharomyces cerevisiae, sequence (P33301 whole entry, chain 4 of 3): as the sequence (P33301 whole entry, stated change not applied, chain 3 of 3) above

B1: TP2399/TP2400 blunt 100 bp duplex, pull-down (dsDNA)
DNA 1: GCTAAAGCGAAGAACACTGAAAGGTTCAAAACCTCCACTATAGTCCACTCGCAGTCGTACAAGAGGCTTCTCTGGCTGGTGAGAATTACCCAGACGTTCC
DNA 2: GGAACGTCTGGGTAATTCTCACCAGCCAGAGAAGCCTCTTGTACGACTGCGAGTGGACTATAGTGGAGGTTTTGAACCTTTCAGTGTTCTTCGCTTTAGC
Take B1: the binding result in data set [1] was “binds”.

B2: TP74/TP2680 42 bp duplex with 4 nt 3' overhangs (dsDNA)
DNA 1: CTGCAGGGTTTTTGTTCCAGTCTGTAGCACTGTGTAAGACAGGCCA
DNA 2: CTGTCTTACACAGTGCTACAGACTGGAACAAAAACCCTGCAGTACA
In the case of B2, the binding result (in data set [2]; in the data set with M(H125N)RX; with Sae2 [3]) was “binds” throughout.

B3: TP74/TP2681 branched substrate (dsDNA)
DNA 1: CTGCAGGGTTTTTGTTCCAGTCTGTAGCACTGTGTAAGACAGGCCA
DNA 2: CTAGCTACTTGACACAGTGCTACAGACTGGAACTGACTTCATGCTA
Take B3: in the data set with Exo1 D173A, the binding result is “binds”.

B4: TP2722/TP2723 90 bp, 5' azide (dsDNA)
DNA 1: AAGTAAATCATTAATCTAACAATGCGCTCATCGTCATCCTCACATCGGCCTGTCTTACACAGTGCTAAGCTCGGAACAAAAACCCTGCAG
DNA 2: CTGCAGGGTTTTTGTTCCGAGCTTAGCACTGTGTAAGACAGGCCGATGTGAGGATGACGATGAGCGCATTGTTAGATTAATGATTTACTT
modifications: 5 phosphorothioates at 5' end of each strand, azidophenacyl (APB) modified
In the case of B4, the binding result in data set [4] and in data set [5] was “binds” in each case.

B5: TP771/TP828 90 bp, 3' azide (dsDNA)
DNA 1: AAGTAAATCATTAATCTAACAATGCGCTCATCGTCATCCTCACATCGGCCTGTCTTACACAGTGCTAAGCTCGGAACAAAAACCCTGCAG
DNA 2: CTGCAGGGTTTTTGTTCCGAGCTTAGCACTGTGTAAGACAGGCCGATGTGAGGATGACGATGAGCGCATTGTTAGATTAATGATTTACTT
modifications: 5 phosphorothioates at 3' end of each strand, azidophenacyl (APB) modified
For B5, in the data set with Sae2 [6], the binding result is “binds”.
